{"source": "patent US20150342993A1", "about": "“COMPOSITIONS AND METHODS FOR IMMUNOTHERAPY” (MEMORIAL SLOAN-KETTERING CANCER CENTER, published 2015)", "binders": {"B1": {"name": "P28BB (CAR)", "chain": "EVQLQQSGPELVKPGTSVRISCKTSGYTFTEYTIHWVKQSHGKSLEWIGNINPNNGGTTYNQKFEDKATLTVDKSSSTAYMELRSLTSEDSAVYYCAAGWNFDYWGQGTTVTVSSGGGGSGGGGSGGGGSDIVMTQSHKFMSTSVGDRVSIICKASQDVGTAVDWYQQKPGQSPKLLIYWASTRHTGVPDRFTGSGSGTDFTLTITNVQSEDLADYFCQQYNSYPLTFGAGTMLDLKRAAAIEVMYPPPYLDNEKSNGTIIHVKGKHLCPSPLFPGPSKPFWVLVVVGGVLACYSLLVTVAFIIFWVRSKRSRLLHSDYMNMTPRRPGPTRKHYQPYAPPRDFAAYRSRFSVVKRGRKKLLYIFKQPFMRPVQTTQEEDGCSCRFPEEEEGGCE"}}, "molecular_target": "prostate-specific membrane antigen (Homo sapiens (Human), UniProt Q04609)", "experiment": "cell-based or functional assay", "data": [{"binder": "B1", "values": [{"measurement": "long-term T cell proliferation (absolute T cell counts over 31 days, no exogenous cytokine)", "result": 58, "unit": "fold expansion"}]}]}
